Patent US20060193821, “Aptamers to the human IL-12 cytokine family and their use as autoimmune disease therapeutics” (published 2006)

Columns and labels:
[1] = target: T1, IL-23 (human, p19/p40 heterodimer) (Homo sapiens, UniProt Q9NPF7;P29460 SEQ:20-189,SEQ:23-328); assay: filter; DPBS with Ca and Mg, 0.1 mg/mL tRNA, 30 min RT; conditions: tags: R&D Systems, carrier free; label: 32P
Description: The selection progress was monitored using the dot blot sandwich filter binding assay as described in Example 1A. The 5′-³²P-labeled pool RNA was refolded at 90° C. for 3 minutes and cooled to room temperature for 10 minutes. Next, pool RNA (trace concentration) was incubated with h-IL-23 DPBS plus 0.1 mg/mL tRNA for 30 minutes at room temperature and then applied to a nitrocellulose and nylon filter sandwich in a dot blot apparatus (Schleicher and Schuell). The percentage of pool RNA bound to the nitrocellulose was calculated and monitored approximately every 3 rounds with a single point screen (+/−250 nM h-IL-23). Pool KD measurements were measured using a titration of h-IL-23 protein (R&D, Minneapolis, Minn.) and the dot blot apparatus as described above.
The rRmY h-IL-23 selection was enriched for h-IL-23 binding vs. the naïve pool after 4 rounds of selection (data not shown). The selection stringency was increased and the selection was continued for 8 more rounds. […] The rGmH selection was enriched over the naïve pool binding at Round 10. […] FIG. 7 is a binding curve of rRmY and rGmH pool selection binding to h-IL-23. The pools were cloned using TOPO TA cloning kit (Invitrogen, Carlsbad, Calif.) and individual sequences were generated and tested for binding. A single point binding screen was initially performed on all crude rRmY clone transcriptions using a 1:200 dilution, +/−200 nM IL-23, plus 0.1 mg/mL competitor tRNA. […] The 10 point screen was performed using zero to 480 nM IL-23 in 3 fold serial dilutions. Binding curves were generated (KaleidaGraph v. 3.51, Synergy Software) and KDs were estimated by fitting the data to the equation: fraction RNA bound=amplitude[h-IL-23]/KD+[h-IL-23]). […] There was one group of 6 duplicate sequences and 4 pairs of 2 duplicate sequences out of the rRmY clones generated. […] Clones were also tested from 48 crude rGmH clone transcriptions at a 1:200 dilution and 0.1 mg/mL tRNA was used as competitor.

[2] = target: T1, IL-23 (human, p19/p40 heterodimer); assay: filter; 1X SHMCK, 1 mM Mg, 1 mM Ca, 0.1 mg/mL tRNA, RT; conditions: tags: R&D Systems, carrier free; label: 5'-32P
Description: (§1) Monitoring Progress of rRfY Selection. Dot blot binding assays were performed throughout the selections to monitor the protein binding affinity of the pools. Trace ³²P-labeled RNA was combined with a dilution series of h-IL-23 and incubated at room temperature for 30 minutes in 1×SHMCK (20 mM Hepes, 120 mM NaCl, 5 mM KCl, 1 mM MgCl₂, 1 mM CaCl₂, pH 7.4) plus 0.1 mg/mL tRNA for a final volume of 20 μL. The binding reactions were analyzed by nitrocellulose filtration using a Minifold I dot-blot, 96-well vacuum filtration manifold (Schleicher & Schuell, Keene, N.H.). A three-layer filtration medium was used, consisting (from top to bottom) of Protran nitrocellulose (Schleicher & Schuell), Hybond-P nylon (Amersham Biosciences) and GB002 gel blot paper (Schleicher & Schuell). RNA that is bound to protein is captured on the nitrocellulose filter, whereas the non-protein bound RNA is captured on the nylon filter. The gel blot paper was included simply as a supporting medium for the other filters. Following filtration, the filter layers were separated, dried and exposed on a phosphor screen (Amersham Biosciences, Piscataway, N.J.) and quantified using a Storm 860 Phosphorimager® blot imaging system (Amersham Biosciences).
(§2) When a significant positive ratio of binding of RNA in the presence of h-IL-23 versus in the absence of h-IL-23 was seen, the pools were cloned using a TOPO TA cloning kit (Invitrogen, Carlsbad, Calif.) according to the manufacturer's instructions. For the h-IL-23 and X-IL-23 selections, the Round 8 pool templates were cloned, and 32 individual clones from each selections were assayed in a 1-point dot blot screen (+/−75 nM h-IL-23, as well as a separate screen at +/−75 nM h-IL-12). For the PN-IL-23 selection, the Round 10 pool was cloned and sequenced, and 8 unique clones were assayed for protein binding in a 1-point dot blot screen (+/−200 nM h-IL-23 and a separate screen at +/−200 nM h-IL-12). Subsequently, the Round 10 PN-IL-23 pool was re-cloned for further sequences, as well as the R12 PN-IL-23 pool, and the clones were assayed for protein binding in a 1 point do blot screen (+/−100 nM h-IL-23 or +/−200 nM h-IL-12).

[3] = target: T2, IL-12 (human, p35/p40 heterodimer) (Homo sapiens, UniProt P29459;P29460 SEQ:57-253,SEQ:23-328); assay: filter; 1X SHMCK, 0.1 mg/mL tRNA, RT; conditions: label: 5'-32P
Description: as §1, §2

[4] = target: T1, IL-23 (human, p19/p40 heterodimer); assay: filter; 0.1 mg/mL tRNA, 30 min RT; conditions: tags: R&D Systems, carrier free; label: 5'-32P
Description: as §1

[5] = target: T2, IL-12 (human, p35/p40 heterodimer); assay: filter; 1X PBS, tRNA, ssDNA, BSA, 30 min RT; conditions: label: 32P
[6] = target: T1, IL-23 (human, p19/p40 heterodimer); assay: filter; 1X PBS, tRNA, ssDNA, BSA, 30 min RT; conditions: tags: R&D Systems, carrier free; label: 32P
[7] = target: T1, IL-23 (human, p19/p40 heterodimer); assay: cell_activity; Pathscan pSTAT3; conditions: tags: R&D Systems, carrier free
Description: Inhibition of IL-23-induced STAT3 phosphorylation was measured using the Pathscan® Phospho-STAT3 (Tyr705) Sandwich ELISA Kit (Cell Signaling Technology, Beverly, Mass.).
Similar to the TransAM™ Assay method previously described, the Pathscan® Phospho-STAT3 (Tyr705) Sandwich ELISA Kit detects endogenous levels of Phospho-STAT3 (Tyr705) protein by using a STAT3 rabbit monoclonal antibody which has been coated onto the wells of a 96-well plate. After incubation with cell lysates, both nonphospho- and phospho-STAT3 proteins are captured by the coated antibody. A phospho-STAT3 mouse monoclonal antibody is added to detect the captured phospho-STAT3 protein, and an HRP-linked anti-mouse antibody is then used to recognize the bound detection antibody. HRP substrate, TMB, is added to develop color, and the magnitude of optical density for this developed color is proportional to the quantity of phospho-STAT3 protein.
PHA Blasts were isolated and prepared as described above and treated with hIL-23 at a final constant concentration of 6 ng/mL (R&D Systems, Minneapolis, Minn.) to induce STAT3 activation, instead of using 3 ng/mL as previously described with the TransAM™ assay. Clones were screened by using a 6-point […] titration from 0 to 700 nM in 3 fold dilutions in combination with a constant IL-23 concentration of 6 ng/mL of IL-23 (R&D Systems, Minneapolis, Minn.) to induce STAT3 activation, instead of using 3 ng/mL as previously described with the TransAM™ assay. Lysates of treated cells were prepared using the buffers provided by the Pathscan kit, and the assay was run according to the manufacturer's instructions. IC₅₀s for the full length clones were calculated from the dose response curves.

[8] = target: T1, IL-23 (human, p19/p40 heterodimer); assay: filter; DPBS Ca Mg; conditions: tags: R&D Systems, carrier free
Description: The dot blot binding assay previously described was used to characterize the relative potency of the majority of the aptamers synthesized. For KD determination, chemically synthesized aptamers were purified using denaturing polyacrylamide gel electrophoresis, 5′end labeled with γ-³²P ATP and were tested for direct binding to full human IL-23. An 8 point protein titration was used in the dot blot binding assay (either {100 nM, 30 nM, 10 nM, 3 nM, 1 nM, 300 pM, 100 pM, 0 pM} or {10 nM, 3 nM, 1 nM, 300 pM, 100 pM, 30 pM, 10 pM, 0 pM}) in Dulbecco's PBS (with Mg⁺⁺ and Ca⁺⁺) with 0.1 mg/mL BSA. KD values were calculated by fitting the equation y=(max/(1+K/protein))+yint using KaleidaGraph (KaleidaGraph v. 3.51, Synergy Software). Sequences of the ARC979 derivatives synthesized, purified and assayed for binding to IL-23 as well as the results of the protein binding characterization are tabulated below in Tables 29 and 30.

T1 sequence (Q9NPF7 20-189, chain 1 of 2): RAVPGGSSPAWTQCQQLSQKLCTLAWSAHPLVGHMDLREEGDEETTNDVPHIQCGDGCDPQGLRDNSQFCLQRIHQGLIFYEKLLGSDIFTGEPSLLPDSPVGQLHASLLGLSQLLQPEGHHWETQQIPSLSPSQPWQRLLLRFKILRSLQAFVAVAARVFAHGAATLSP
T1 sequence (P29460 23-328, chain 2 of 2): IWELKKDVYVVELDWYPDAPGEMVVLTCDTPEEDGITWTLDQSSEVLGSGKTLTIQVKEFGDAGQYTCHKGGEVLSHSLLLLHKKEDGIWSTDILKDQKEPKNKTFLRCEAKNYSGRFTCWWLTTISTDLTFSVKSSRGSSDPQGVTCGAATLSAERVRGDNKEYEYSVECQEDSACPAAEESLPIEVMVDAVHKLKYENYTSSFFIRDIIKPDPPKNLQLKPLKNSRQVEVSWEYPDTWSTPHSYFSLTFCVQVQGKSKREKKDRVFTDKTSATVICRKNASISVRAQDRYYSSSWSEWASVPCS
T2 sequence (P29459 23-219, chain 1 of 2): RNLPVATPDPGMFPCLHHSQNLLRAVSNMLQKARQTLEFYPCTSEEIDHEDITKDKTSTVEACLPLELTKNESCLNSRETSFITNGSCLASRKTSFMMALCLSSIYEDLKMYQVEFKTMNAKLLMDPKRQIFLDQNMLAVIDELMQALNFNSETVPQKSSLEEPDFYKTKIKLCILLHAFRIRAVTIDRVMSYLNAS
T2 sequence (P29460 23-328, chain 2 of 2): as the sequence (P29460 23-328, chain 2 of 2) above

B1: rRmY clone SEQ 80 (ssRNA)
RNA: GGGAGAGGAGAGAACGUUCUACAAGAUAUAAUUAAGGAUAAGUGCAAAGGAGACGCUGUCGAUCGAUCGAUCGAUG
modifications: 2'-OMe all C and U (rRmY)
With B1 the Kd [1] was 3790 nM.

B2: AMX86-G10 (ssRNA)
RNA: GGGAAAAGCGAAUCAUACACAAGAGUCAUGGCUUACAAUUGAAACAAGAGCUCGCGUGACACAUGCUCCGCCAGAGACCAACCGAGAA
modifications: 2'-F all C and U (rRfY)
Binder B2 has a Kd [2] of 73.7 nM and a Kd [3] of 356 nM.

B3: AMX91-B8 (ssRNA)
RNA: GGGAAAAGCGAAUCAUACACAAGAAUCCUGGCUUCGCAUAGUGUAUGGGUAGUACGACAGCGCGUGCUCCGCCAGAGACCAACCGAGAA
modifications: 2'-F all C and U (rRfY)
B3 was tested, and the Kd [2] was 17.6 nM and the Kd [3] was 409 nM.

B4: AMX84-C11 (ssRNA)
RNA: GGGAAAAGCGAAUCAUACACAAGAAUGGUCGGAAUCUCUGGCGCCACGCUGAGUAUAGACGGAAGCUCCGCCAGAGACCAACCGAGAA
modifications: 2'-F all C and U (rRfY)
With B4 the Kd [2] was 15.5 nM and the Kd [3] was 286 nM.

B5: A10.min5 (ssRNA)
RNA: GGAGCAUACACAAGAAGUUUUUUGUGCUCUGAGUACUCAGCGUCCGUAAGGGAUAUGCUCC
modifications: 2'-F all C and U (rRfY)
B5 was tested, and the Kd [4] was 57.8 nM.

B6: F11.min2 (ssRNA)
RNA: GGACAUACACAAGAUGUGCUUGAGUUAAAUCUCAUCGUCCCCGUUUGGGGAUAUGUC
modifications: 2'-F all C and U (rRfY)
Binder B6 has a Kd [4] of 65 nM.

B7: ARC490 (mixed)
RNA: GGGAGAGGAGAGAACGUUCUACAGCCUUUUGGGUAAGGGGAGGGGUGCCGGUCGCUGUCGAUCGAUCGAUCGAUG
modifications: 2'-deoxy A and G, 2'-OMe C and U (dRmY)
B7 was tested, and the Kd [5] was 37.1 nM and the Kd [6] was 26 nM.

B8: ARC489 (mixed)
RNA: GGGAGAGGAGAGAACGUUCUACAGCGCCGGUGGGCGGGCAUUGGGUGGAUGCGCUGUCGAUCGAUCGAUCGAUG
modifications: 2'-deoxy A and G, 2'-OMe C and U (dRmY)
B8 showed a Kd [5] of 17.2 nM and a Kd [6] of 4 nM.

B9: ARC491 (mixed)
RNA: GGGAGAGGAGAGAACGUUCUACAGCGCCGGUGGGUGGGCAUAGGGUGGAUGCGCUGUCGAUCGAUCGAUCGAUG
modifications: 2'-deoxy A and G, 2'-OMe C and U (dRmY)
In the case of B9, the Kd [5] is reported as 93 nM and the Kd [6] is reported as 17.1 nM.

B10: B10.min4 (ssRNA)
RNA: GGAGCAUACACAAGAAGUGCUUCAUGCGGCAAACUGCAUGACGUCGAAUAGAUAUGCUCC
modifications: 2'-F all C and U (rRfY)
Binder B10 has a Kd [4] of 36.4 nM.

B11: AMX86-D11 (ssRNA)
RNA: GGGAAAAGCGAAUCAUACACAAGAUAGCGUCUAUGAUGGCGGAGAAGCAAGUGUAGCAUAACAGGCUCCGCCAGAGACCAACCGAGAA
modifications: 2'-F all C and U (rRfY)
Binder B11 has a Kd [2] of 199 nM and a Kd [3] of 114 nM.

B12: rRmY clone SEQ 88 (ssRNA)
RNA: GGGAGAGGAGAGAACGUUCUACAUAAGCAGGCUCCGAUAGUAUUCGGGAAGUCGCUGUCGAUCGAUCGAUCGAUG
modifications: 2'-OMe all C and U (rRmY)
B12 showed a Kd [1] of 101 nM.

B13: rRmY clone SEQ 83 (ssRNA)
RNA: GGGAGAGGAGAGAACGUUCUACGCAGGCUGUCGUAGACAAACGAUGAAGUCGCGCUGUCGAUCGAUCGAUCGAUG
modifications: 2'-OMe all C and U (rRmY)
In the case of B13, the Kd [1] is reported as 8.2 nM.

B14: ARC1622 (mixed)
RNA: ACAGGCAAGUAAUUGGGGAGUGCGGGCGGGGUGU
modifications: 2'-OMe C,U and G16,G17,G24,G25,G30,G31; other A,G deoxy; PS 6-7,7-8,8-9,10-11,11-12,14-15; 3'-idT [PS 6-7,7-8,8-9,10-11,11-12,14-15; 2'-OMe at 2,6,10,13,14,16,17,21,23,24,25,27,30,31,32,34; other A,G deoxy; 3'-inverted dT at 35]
In the case of B14, the IC50 [7] is reported as 9 nM and the Kd [8] is reported as 0.3 nM.

B15: ARC1755 (mixed)
RNA: ACAGGCAAGUAAUUGGGGAGUGCGGGCGGGGUGU
modifications: 2'-OMe C,U and most purines; PS 2-3,6-7,11-12,14-15; 3'-idT [2'-OMe C2,C6,U10,U13,U14,U21,C23,C27,U32,U34 and most purines (positions not stated); PS 2-3,6-7,11-12,14-15 (N = PS linkage, left out); 3'-inverted dT 35]
B15 gave an IC50 [7] of 68 nM and a Kd [8] of 0.8 nM.

B16: Type 1.5 (ssRNA)
RNA: GGAGUACGCCGAAAGGCGCUUCCGAAAGGACGUCCGUAAGGGAUACUCC
modifications: 2'-F all C and U (rRfY)
Binder B16 has a Kd [4] of 31.4 nM.

B17: rRmY clone SEQ 76 (ssRNA)
RNA: GGGAGAGGAGAGAACGUUCUACAACAAAGCAGGCUCAUAGUAAUAUGGAAGUCGCUGUCGAUCGAUCGAUCGAUG
modifications: 2'-OMe all C and U (rRmY)
For B17, the Kd [1] was 77.2 nM.
